In PMC10624832:
Blank lines part the entries; values can stand above or below the substance they belong to.

Assays:
Hsp70 [1] = biological target: Hsp70 (UniProt P11142)
Hsp70 [2] = biological target: Hsp70 (UniProt P11142); remark: listed apart in the source
[3] = biological target: Hsp70 T204A,S494C-AF488 (C267A, C574A, C603A); test: fluorescence polarisation; steady-state fluorescence anisotropy; 100 nM Hsp70 T204A,S494C-AF488 titrated with 0-1.0 mM full-length DNAJB6 WT or mutants; 20 min at 37 °C; 50 mM HEPES pH 8.0, 200 mM KCl, 10 mM MgCl, 2 mM ATP; one-site binding model
Hsp70 [4] = biological target: Hsp70 (UniProt P11142); remark: listed apart in the source
Hsp70 [5] = biological target: Hsp70 (UniProt P11142); remark: listed apart in the source

DNAJB6^JD-GF WT (res. 1-109), sequence (O75190 1-109): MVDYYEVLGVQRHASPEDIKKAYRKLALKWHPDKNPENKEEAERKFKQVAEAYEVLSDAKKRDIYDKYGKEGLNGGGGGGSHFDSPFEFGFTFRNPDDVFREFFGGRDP
DNAJB6^WT (isoform b), full-length oligomeric, O75190-2 1-241 (natural protein), sequence (O75190 other isoform, or with tags, fused parts or gaps): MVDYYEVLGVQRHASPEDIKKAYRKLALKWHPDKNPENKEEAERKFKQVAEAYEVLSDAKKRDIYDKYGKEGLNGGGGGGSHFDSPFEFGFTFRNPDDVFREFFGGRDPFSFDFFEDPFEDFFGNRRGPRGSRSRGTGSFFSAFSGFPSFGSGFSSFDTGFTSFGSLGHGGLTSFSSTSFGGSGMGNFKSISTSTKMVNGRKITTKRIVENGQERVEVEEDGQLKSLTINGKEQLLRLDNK
DNAJB6^JD (res. 1-72), sequence (O75190 1-72): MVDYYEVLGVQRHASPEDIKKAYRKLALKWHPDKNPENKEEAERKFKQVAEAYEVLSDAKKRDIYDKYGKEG

Substance: DNAJB6^JD (res. 1-72) (from UniProt O75190 1-72) (domain or fragment)
steady-state ATPase activity of Hsp70 (initial rate of phosphate release, PBP fluorescence); 0.25 μM Hsp70, 0.25 μM DNAJB6 variant (Hsp70 [1]): 1.74 nM Pi min^−1

Substance: full-length DNAJB6 P96R (from UniProt O75190-2 1-241) (natural protein)
Kd [3]: 47 µM

Substance: DNAJB6^JD-GF F100V (from UniProt O75190 1-109) (domain or fragment)
steady-state ATPase activity of Hsp70 (initial rate of phosphate release); roughly 6-8-fold increase (Hsp70 [2]): 1.64 nM Pi min^−1

Substance: full-length DNAJB6 A50V (from UniProt O75190-2 1-241) (natural protein)
Kd [3]: 9 µM

Substance: DNAJB6^JD-GF A50V (from UniProt O75190 1-109) (domain or fragment)
steady-state ATPase activity of Hsp70 (initial rate of phosphate release); roughly 6-8-fold increase (Hsp70 [2]): 1.24 nM Pi min^−1

Substance: DNAJB6^JD-GF P96R (from UniProt O75190 1-109) (domain or fragment)
steady-state ATPase activity of Hsp70, fold enhancement of ATP hydrolysis rate (Hsp70 [2]): 4 fold

Substance: full-length DNAJB6 F91I (from UniProt O75190-2 1-241) (natural protein)
Kd [3]: 600 µM

Substance: DNAJB6^JD-GF WT (res. 1-109) (from UniProt O75190 1-109) (domain or fragment)
steady-state ATPase activity of Hsp70, fold activation over Hsp70 alone (Hsp70 [5]): 1.6 fold

Other lines, results leading:

steady-state ATPase activity of Hsp70, fold enhancement of ATP hydrolysis rate (Hsp70 [2]): 4 fold
Substance: DNAJB6^JD-GF E54A (from UniProt O75190 1-109) (domain or fragment)

Kd [3]: 290 µM
Substance: full-length DNAJB6 F93L (from UniProt O75190-2 1-241) (natural protein)

Kd [3]: > 10000 µM
Substance: DNAJB6^WT (isoform b), full-length oligomeric (from UniProt O75190-2 1-241) (natural protein)

steady-state ATPase activity of Hsp70 with full-length oligomeric DNAJB6, fold activation (Hsp70 [4]): 1.4 fold
Substance: DNAJB6^WT (isoform b), full-length oligomeric, O75190-2 1-241 (natural protein)

Kd [3]: 1.5 µM
Substance: full-length DNAJB6 F100V (from UniProt O75190-2 1-241) (natural protein)
